Source: patent US20170247448A1 (INTRINSIC LIFESCIENCES, published 2017)

Columns and labels:
Assay in all cases: C-ELISA: goat anti-human Fc coated plate, antibody captured (30 ng/well per title of FIG. 20D), unlabelled hepcidin titrated (ng/well per axis of FIG. 20D) against a labelled tracer not named for this figure; OD = tracer left on the antibody
BAP070-hum02 = molecular target: T1, BAP070-hum02
T1 construct: Expressed as soluble IgG1 in CHO cells, tested as supernatant; The entries stop inside FR4

BAP070-hum04 = molecular target: T2, BAP070-hum04
T2 construct: Expressed as soluble IgG1 in CHO cells, tested as supernatant; The entries stop inside FR4

BAP070-hum05 = molecular target: T3, BAP070-hum05
T3 construct: Expressed as soluble IgG1 in CHO cells, tested as supernatant; The entries stop inside FR4

BAP070-hum06 = molecular target: T4, BAP070-hum06
T4 construct: Expressed as soluble IgG1 in CHO cells, tested as supernatant; The entries stop inside FR4
T4 sequence (VH, as listed by the source, chain 1 of 2): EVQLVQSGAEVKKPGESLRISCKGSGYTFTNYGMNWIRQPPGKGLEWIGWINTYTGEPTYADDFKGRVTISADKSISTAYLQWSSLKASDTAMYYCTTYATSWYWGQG
T4 sequence (VL, as listed by the source, chain 2 of 2): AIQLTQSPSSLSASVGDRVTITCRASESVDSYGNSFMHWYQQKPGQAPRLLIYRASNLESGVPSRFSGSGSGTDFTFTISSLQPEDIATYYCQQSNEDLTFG

T3 sequence (VL, as listed by the source, chain 2 of 2): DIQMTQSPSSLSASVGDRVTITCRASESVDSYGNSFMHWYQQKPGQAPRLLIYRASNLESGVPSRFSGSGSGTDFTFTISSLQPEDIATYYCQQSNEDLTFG
T1 sequence (VH, as listed by the source, chain 1 of 2): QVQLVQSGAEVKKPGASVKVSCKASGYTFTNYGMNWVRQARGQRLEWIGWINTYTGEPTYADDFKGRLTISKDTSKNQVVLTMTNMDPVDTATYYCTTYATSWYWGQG
T1 sequence (VL, as listed by the source, chain 2 of 2): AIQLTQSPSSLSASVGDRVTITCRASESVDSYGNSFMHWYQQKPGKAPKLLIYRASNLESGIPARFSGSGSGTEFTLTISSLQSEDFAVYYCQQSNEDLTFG
T2 sequence (VL, as listed by the source, chain 2 of 2): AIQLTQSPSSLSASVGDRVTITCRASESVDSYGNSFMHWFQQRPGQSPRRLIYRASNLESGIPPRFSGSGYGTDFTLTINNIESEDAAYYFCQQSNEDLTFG

B1: Human hepcidin peptide (hepcidin-25) (peptide)
peptide: DTHFPICIFCCGCCHRSKCGMCCKT
notes: Synthetic 25 aa peptide; also called hep-25; Hep-25
OD450 at 0.000 ng/well hepcidin (BAP070-hum02): 0.812
OD450 at 0.137 ng/well hepcidin (BAP070-hum02): 0.844
OD450 at 0.412 ng/well hepcidin (BAP070-hum02): 0.814
OD450 at 1.235 ng/well hepcidin (BAP070-hum02): 0.539
OD450 at 3.704 ng/well hepcidin (BAP070-hum02): 0.279
OD450 at 11.111 ng/well hepcidin (BAP070-hum02): 0.125
OD450 at 33.333 ng/well hepcidin (BAP070-hum02): 0.0475
OD450 at 100.000 ng/well hepcidin (BAP070-hum02): 0.0189
OD450 at 0.000 ng/well hepcidin (BAP070-hum04): 0.433
OD450 at 0.137 ng/well hepcidin (BAP070-hum04): 0.446
OD450 at 0.412 ng/well hepcidin (BAP070-hum04): 0.415
OD450 at 1.235 ng/well hepcidin (BAP070-hum04): 0.301
OD450 at 3.704 ng/well hepcidin (BAP070-hum04): 0.148
OD450 at 11.111 ng/well hepcidin (BAP070-hum04): 0.0719
OD450 at 33.333 ng/well hepcidin (BAP070-hum04): 0.0303
OD450 at 100.000 ng/well hepcidin (BAP070-hum04): 0.0135
OD450 at 0.000 ng/well hepcidin (BAP070-hum05): 0.972
OD450 at 0.137 ng/well hepcidin (BAP070-hum05): 0.917
OD450 at 0.412 ng/well hepcidin (BAP070-hum05): 0.88
OD450 at 1.235 ng/well hepcidin (BAP070-hum05): 0.625
OD450 at 3.704 ng/well hepcidin (BAP070-hum05): 0.273
OD450 at 11.111 ng/well hepcidin (BAP070-hum05): 0.125
OD450 at 33.333 ng/well hepcidin (BAP070-hum05): 0.0505
OD450 at 100.000 ng/well hepcidin (BAP070-hum05): 0.0195
OD450 at 0.000 ng/well hepcidin (BAP070-hum06): 1.11
OD450 at 0.137 ng/well hepcidin (BAP070-hum06): 1.1
OD450 at 0.412 ng/well hepcidin (BAP070-hum06): 0.961
OD450 at 1.235 ng/well hepcidin (BAP070-hum06): 0.72
OD450 at 3.704 ng/well hepcidin (BAP070-hum06): 0.369
OD450 at 11.111 ng/well hepcidin (BAP070-hum06): 0.154
OD450 at 33.333 ng/well hepcidin (BAP070-hum06): 0.0599
OD450 at 100.000 ng/well hepcidin (BAP070-hum06): 0.0238
